Values of other authors, collected in publication PMC6943629, “Binding of Gold(III) Porphyrin by the Pro-metastatic Regulatory Protein Human Galectin-3” (Molecules, 2019).

Legend:
[1] = molecular target: asialofetuin (Bos taurus) (UniProt P12763)
MUC18 (Homo sapiens) = MUC18 (Homo sapiens) (UniProt P43121); assay: bio-layer interferometry
Chain of MUC18 (Homo sapiens) (P43121 24-646): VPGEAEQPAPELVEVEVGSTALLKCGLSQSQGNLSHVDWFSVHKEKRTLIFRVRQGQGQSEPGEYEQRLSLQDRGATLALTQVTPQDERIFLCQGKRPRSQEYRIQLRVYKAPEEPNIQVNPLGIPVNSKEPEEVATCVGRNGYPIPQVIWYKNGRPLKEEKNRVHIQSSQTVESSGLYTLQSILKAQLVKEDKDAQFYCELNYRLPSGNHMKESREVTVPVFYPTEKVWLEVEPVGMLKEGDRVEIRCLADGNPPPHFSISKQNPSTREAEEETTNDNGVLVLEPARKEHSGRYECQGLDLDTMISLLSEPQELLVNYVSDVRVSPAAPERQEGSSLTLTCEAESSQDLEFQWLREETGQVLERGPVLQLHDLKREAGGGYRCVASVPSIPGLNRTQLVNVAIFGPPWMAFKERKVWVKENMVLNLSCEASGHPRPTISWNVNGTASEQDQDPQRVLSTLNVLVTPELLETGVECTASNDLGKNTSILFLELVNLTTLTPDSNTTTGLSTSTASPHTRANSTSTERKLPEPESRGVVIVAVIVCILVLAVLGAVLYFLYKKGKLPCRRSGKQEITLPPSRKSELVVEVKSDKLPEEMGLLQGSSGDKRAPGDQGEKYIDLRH

Chain of galectin-3 (P17931 2-250): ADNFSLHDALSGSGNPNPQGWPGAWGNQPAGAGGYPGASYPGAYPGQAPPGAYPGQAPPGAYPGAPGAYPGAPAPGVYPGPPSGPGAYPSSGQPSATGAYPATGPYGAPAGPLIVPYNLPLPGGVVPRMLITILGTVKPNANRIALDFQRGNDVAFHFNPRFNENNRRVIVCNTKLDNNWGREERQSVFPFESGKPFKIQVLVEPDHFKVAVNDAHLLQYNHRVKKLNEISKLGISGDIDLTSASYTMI
Chain of asialofetuin (Bos taurus) (P12763 19-359): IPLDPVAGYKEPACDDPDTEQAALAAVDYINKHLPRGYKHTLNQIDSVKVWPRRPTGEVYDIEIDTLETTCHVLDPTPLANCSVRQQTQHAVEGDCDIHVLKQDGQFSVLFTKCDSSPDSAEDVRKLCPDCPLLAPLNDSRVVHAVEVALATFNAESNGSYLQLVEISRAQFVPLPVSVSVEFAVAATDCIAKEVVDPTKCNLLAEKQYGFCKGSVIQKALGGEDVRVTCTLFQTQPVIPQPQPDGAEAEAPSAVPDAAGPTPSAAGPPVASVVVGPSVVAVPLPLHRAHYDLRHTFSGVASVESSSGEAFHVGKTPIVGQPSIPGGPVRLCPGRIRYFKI

galectin-3 (from UniProt P17931)
Kd [1]: 720 nM | Kd (MUC18 (Homo sapiens)): 430 nM
